This passage reports binding result and EC50 results from patent US20080090770A1 (published 2008).

First the molecules themselves.
B1: Flag-MUC1-CD(1-68) (other)
chain: CQCRRKNYGQLDIFPARDTYHPMSEYPTYHTHGRYVPPSSTDRSPYEKVSAGNGGSSLSYTNPAVAAT
notes: also called pIRESpuro2-Flag-MUC1-CD(1-68); truncated MUC1 cytoplasmic domain; not shown: Flag tag
B2: YGRKKRRQRRRQDEEEGIWA (SEQ ID NO: 137) (peptide)
peptide: YGRKKRRQRRRQDEEEGIWA
modifications: also: biotinylated, position not given here
notes: also called AVC#1790; AVC 1790
B3: YGRKKRRQRRRAVAATSINL (SEQ ID NO: 138) (peptide)
peptide: YGRKKRRQRRRAVAATSINL
modifications: also: biotinylated, position not given here
notes: TAT plus 9 residues; also called AVC#1791; AVC 1791
B4: YGRKKRRQRRRARGDRKRIV (SEQ ID NO: 136) (peptide)
peptide: YGRKKRRQRRRARGDRKRIV
modifications: also: biotinylated, position not given here
notes: also called AVC#1796; AVC 1796
B5: YGRKKRRQRRRAVAAASANL (SEQ ID NO: 135) (peptide)
peptide: YGRKKRRQRRRAVAAASANL
modifications: also: biotinylated, position not given here
B6: MUC1 C-terminus peptide NGGSSLSYTNPAVAATSANL (SEQ ID NO: 96) (peptide)
peptide: NGGSSLSYTNPAVAATSANL
modifications: also: biotinylated, position not given here
notes: also called C-terminus of MUC1; MUC1 peptide
B7: YGRKKRRQRRRLQRRRETQV (AVC#1856) (peptide)
peptide: YGRKKRRQRRRLQRRRETQV
modifications: also: biotinylated, position not given here
notes: TAT plus 9 residues
B8: YGRKKRRQRRRQDEEEGIWS (SEQ ID NO: 149) (peptide)
peptide: YGRKKRRQRRRQDEEEGIWS
modifications: also: biotinylated, position not given here
notes: TAT plus 9 residues; also called AVC#1833
B9: YGRKKRRQRRRQDEEETIWA (SEQ ID NO: 144) (peptide)
peptide: YGRKKRRQRRRQDEEETIWA
modifications: also: biotinylated (position not given here)
notes: TAT plus 9 residues; also called AVC#1828
B10: YGRKKRRQRRRARGTRLVWV (SEQ ID NO: 160) (peptide)
peptide: YGRKKRRQRRRARGTRLVWV
modifications: also: biotinylated, position not given here
notes: TAT plus 9 residues; also called AVC#1844
B11: YGRKKRRQRRRSRTVREIWA (SEQ ID NO: 150) (peptide)
peptide: YGRKKRRQRRRSRTVREIWA
modifications: also: biotinylated (position not given here)
notes: TAT plus 9 residues; also called AVC#1834
B12: YGRKKRRQRRRQDERVETRV (SEQ ID NO: 171) (peptide)
peptide: YGRKKRRQRRRQDERVETRV
modifications: also: biotinylated (position not given here)
notes: TAT plus 9 residues; also called AVC#1855
B13: YGRKKRRQRRRARGDVRLML (SEQ ID NO: 156) (peptide)
peptide: YGRKKRRQRRRARGDVRLML
modifications: also: biotinylated, position not given here
notes: TAT plus 9 residues; also called AVC#1840
B14: YGRKKRRQRRRAVAATYSNL (SEQ ID NO: 139) (peptide)
peptide: YGRKKRRQRRRAVAATYSNL
modifications: also: biotinylated, position not given here
notes: TAT plus 9 residues; also called AVC#1793
B15: YGRKKRRQRRRARGDRKIRV (SEQ ID NO: 152) (peptide)
peptide: YGRKKRRQRRRARGDRKIRV
modifications: also: biotinylated, position not given here
notes: TAT plus 9 residues; also called AVC#1836
B16: YGRKKRRQRRRARGDRTIIY (SEQ ID NO: 164) (peptide)
peptide: YGRKKRRQRRRARGDRTIIY
modifications: also: biotinylated, position not given here
notes: TAT plus 9 residues; also called AVC#1848
B17: YGRKKRRQRRRARSDRGIWA (SEQ ID NO: 142) (peptide)
peptide: YGRKKRRQRRRARSDRGIWA
modifications: also: biotinylated, position not given here
notes: TAT plus 9 residues; also called AVC#1823
B18: YGRKKRRQRRRARGDRKVPV (SEQ ID NO: 157) (peptide)
peptide: YGRKKRRQRRRARGDRKVPV
modifications: also: biotinylated, position not given here
notes: TAT plus 9 residues; also called AVC#1841
B19: YGRKKRRQRRRARTDRKVEV (SEQ ID NO: 153) (peptide)
peptide: YGRKKRRQRRRARTDRKVEV
modifications: also: biotinylated, position not given here
notes: TAT plus 9 residues; also called AVC#1837
B20: YGRKKRRQRRRARGDRRRIV (SEQ ID NO: 165) (peptide)
peptide: YGRKKRRQRRRARGDRRRIV
modifications: also: biotinylated, position not given here
notes: TAT plus 9 residues; also called AVC#1849
B21: YGRKKRRQRRRARGDRKRWL (SEQ ID NO: 141) (peptide)
peptide: YGRKKRRQRRRARGDRKRWL
modifications: also: biotinylated, position not given here
notes: TAT plus 9 residues; also called AVC#1822
B22: YGRKKRRQRRRARSDRKRIV (SEQ ID NO: 167) (peptide)
peptide: YGRKKRRQRRRARSDRKRIV
modifications: also: biotinylated, position not given here
notes: TAT plus 9 residues; also called AVC#1851
B23: YGRKKRRQRRRARGDRYRIV (SEQ ID NO: 161) (peptide)
peptide: YGRKKRRQRRRARGDRYRIV
modifications: also: biotinylated, position not given here
notes: TAT plus 9 residues; also called AVC#1845
B24: YGRKKRRQRRRARSDRTIWA (SEQ ID NO: 145) (peptide)
peptide: YGRKKRRQRRRARSDRTIWA
modifications: also: biotinylated, position not given here
notes: TAT plus 9 residues; also called AVC#1829
B25: YGRKKRRQRRRARSDRKRIA (SEQ ID NO: 147) (peptide)
peptide: YGRKKRRQRRRARSDRKRIA
modifications: also: biotinylated, position not given here
notes: TAT plus 9 residues; also called AVC#1831
B26: YGRKKRRQRRRARGDRKRWA (SEQ ID NO: 140) (peptide)
peptide: YGRKKRRQRRRARGDRKRWA
modifications: also: biotinylated, position not given here
notes: TAT plus 9 residues; also called AVC#1821
B27: YGRKKRRQRRRARGDRKKIV (SEQ ID NO: 166) (peptide)
peptide: YGRKKRRQRRRARGDRKKIV
modifications: also: biotinylated, position not given here
notes: TAT plus 9 residues; also called AVC#1850
B28: YGRKKRRQRRRARGDRLEIV (SEQ ID NO: 163) (peptide)
peptide: YGRKKRRQRRRARGDRLEIV
modifications: also: biotinylated, position not given here
notes: TAT plus 9 residues; also called AVC#1847
B29: YGRKKRRQRRRARGDRKYIV (SEQ ID NO: 154) (peptide)
peptide: YGRKKRRQRRRARGDRKYIV
modifications: also: biotinylated, position not given here
notes: TAT plus 9 residues; also called AVC#1838
B30: YGRKKRRQRRRARSDRTIIA (SEQ ID NO: 146) (peptide)
peptide: YGRKKRRQRRRARSDRTIIA
modifications: also: biotinylated, position not given here
notes: TAT plus 9 residues; also called AVC#1830
B31: YGRKKRRQRRRSVTSTSINL (SEQ ID NO: 151) (peptide)
peptide: YGRKKRRQRRRSVTSTSINL
modifications: also: biotinylated (position not given here)
notes: TAT plus 9 residues; also called AVC#1835
B32: YGRKKRRQRRRSRTDRKYWA (SEQ ID NO: 148) (peptide)
peptide: YGRKKRRQRRRSRTDRKYWA
modifications: also: biotinylated (position not given here)
notes: TAT plus 9 residues; also called AVC#1832
B33: YGRKKRRQRRRSRTDRKYQI (SEQ ID NO: 155) (peptide)
peptide: YGRKKRRQRRRSRTDRKYQI
modifications: also: biotinylated (position not given here)
notes: TAT plus 9 residues; also called AVC#1839
B34: YGRKKRRQRRRARGDRLVSL (SEQ ID NO: 159) (peptide)
peptide: YGRKKRRQRRRARGDRLVSL
modifications: also: biotinylated, position not given here
notes: TAT plus 9 residues; also called AVC#1843
B35: YGRKKRRQRRRKNKDKEYYV (SEQ ID NO: 168) (peptide)
peptide: YGRKKRRQRRRKNKDKEYYV
modifications: also: biotinylated, position not given here
notes: TAT plus 9 residues; also called AVC#1852
B36: YGRKKRRQRRRAVAATGIWA (SEQ ID NO: 143) (peptide)
peptide: YGRKKRRQRRRAVAATGIWA
modifications: also: biotinylated, position not given here
notes: TAT plus 9 residues; also called AVC#1827
B37: YGRKKRRQRRRSRTDRLEYV (SEQ ID NO: 162) (peptide)
peptide: YGRKKRRQRRRSRTDRLEYV
modifications: also: biotinylated (position not given here)
notes: TAT plus 9 residues; also called AVC#1846
B38: YGRKKRRQRRRGMTSSSSVV (SEQ ID NO: 169) (peptide)
peptide: YGRKKRRQRRRGMTSSSSVV
modifications: also: biotinylated, position not given here
notes: TAT plus 9 residues; also called AVC#1853
B39: YGRKKRRQRRRQDERRLIVL (SEQ ID NO: 158) (peptide)
peptide: YGRKKRRQRRRQDERRLIVL
modifications: also: biotinylated (position not given here)
notes: TAT plus 9 residues; also called AVC#1842

Where no end group is shown, it is not given here.

T1 sequence (chain, as listed by the source): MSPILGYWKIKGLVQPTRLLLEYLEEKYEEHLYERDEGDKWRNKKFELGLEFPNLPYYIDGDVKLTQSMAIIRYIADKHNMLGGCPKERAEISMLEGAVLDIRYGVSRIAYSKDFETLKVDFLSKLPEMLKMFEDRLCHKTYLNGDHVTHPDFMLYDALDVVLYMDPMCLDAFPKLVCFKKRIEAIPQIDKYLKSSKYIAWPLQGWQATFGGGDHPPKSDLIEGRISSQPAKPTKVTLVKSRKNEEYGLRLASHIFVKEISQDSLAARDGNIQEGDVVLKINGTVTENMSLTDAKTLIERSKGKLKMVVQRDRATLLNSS
T2 sequence (chain, as listed by the source): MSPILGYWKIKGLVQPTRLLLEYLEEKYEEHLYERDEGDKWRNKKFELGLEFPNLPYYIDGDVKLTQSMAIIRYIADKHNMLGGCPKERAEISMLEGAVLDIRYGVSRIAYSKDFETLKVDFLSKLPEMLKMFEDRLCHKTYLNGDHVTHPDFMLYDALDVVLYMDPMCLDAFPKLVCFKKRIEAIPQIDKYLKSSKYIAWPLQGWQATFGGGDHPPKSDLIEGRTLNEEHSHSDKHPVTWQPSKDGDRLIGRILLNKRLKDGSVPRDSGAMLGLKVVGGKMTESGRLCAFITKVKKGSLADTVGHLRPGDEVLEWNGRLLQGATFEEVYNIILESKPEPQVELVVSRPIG

The target of the first assay is FGFR3 (UniProt P22607 23-806, limits assumed). The assay can be described thus: immunoprecipitation with anti-FGFR3 from lysates of transfected 293 cells, anti-MUC1-CD immunoblot. For orientation: In western blotting, separated proteins are transferred to a membrane and probed.
Chain of FGFR3 (P22607 23-806 limits assumed): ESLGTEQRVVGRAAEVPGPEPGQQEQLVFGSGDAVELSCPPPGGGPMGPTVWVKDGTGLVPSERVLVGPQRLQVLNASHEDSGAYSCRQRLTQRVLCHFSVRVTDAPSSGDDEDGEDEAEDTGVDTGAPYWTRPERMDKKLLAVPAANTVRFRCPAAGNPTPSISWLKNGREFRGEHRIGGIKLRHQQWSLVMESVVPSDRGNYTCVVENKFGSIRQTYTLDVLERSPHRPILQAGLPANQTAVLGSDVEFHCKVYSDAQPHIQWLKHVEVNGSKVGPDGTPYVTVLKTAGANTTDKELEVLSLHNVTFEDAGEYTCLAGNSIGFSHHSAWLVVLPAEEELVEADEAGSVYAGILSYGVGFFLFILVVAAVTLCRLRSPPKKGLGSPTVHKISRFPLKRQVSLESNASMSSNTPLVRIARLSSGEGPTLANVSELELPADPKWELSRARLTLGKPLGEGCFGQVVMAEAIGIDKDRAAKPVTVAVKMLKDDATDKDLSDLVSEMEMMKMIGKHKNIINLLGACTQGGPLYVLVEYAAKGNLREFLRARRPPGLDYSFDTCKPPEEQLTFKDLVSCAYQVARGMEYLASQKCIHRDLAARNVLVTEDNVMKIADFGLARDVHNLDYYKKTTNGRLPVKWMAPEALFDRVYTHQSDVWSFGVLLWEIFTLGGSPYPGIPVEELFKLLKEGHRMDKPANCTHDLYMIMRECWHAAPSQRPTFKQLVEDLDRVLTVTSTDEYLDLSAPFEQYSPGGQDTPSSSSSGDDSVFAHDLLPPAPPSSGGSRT
Description: Lysates were subjected to immunoprecipitation with anti-FGFR3 or IgG as a control.
Equal amounts of cell lysate were incubated with anti-FGFR3 or mouse IgG. […] Reactivity was detected with a horseradish peroxidase-conjugated second antibody and chemiluminescence.
Consider B1, for which the binding result is “no binding”.

A further assay addresses T1, GST-ZO-1 PDZ domain 2 (human).
T1 construct: also called ZO-1 d2; ZO1 d2
The assay can be described thus: modified ELISA, GST-PDZ captured by anti-GST, biotinylated peptide titrated. A general note: An ELISA detects its analyte on a solid surface through an enzyme-linked reagent.
For orientation: EC50 means the concentration giving half of the maximal effect. A high value points to weaker potency. In turn, B2 gave an EC50 of 50 nM.

For B3, the 50% effective concentration (EC50) worked out at 8 nM.

As for B4, the EC50 is 20 nM.

Another assay addresses T2, GST-RIM2 (KIAA0751) PDZ domain 1 (human).
T2 construct: Construct RIM2, PDZ domain 1-pGEX-3X; vector sites BamH1/EcoR1, insert sites BglII/MfeI; also called GST-RIM2 PDZ domain; RIM3 (as printed once)
The assay is described as above.
The molecule B2 gave an EC50 of 5 nM.

As to B3, the EC50 amounted to 40 nM.

In turn, B4 yielded an EC50 of 20 nM.

The next assay concerns the target T2, GST-RIM2 (KIAA0751) PDZ domain 1. The experiment in a line: modified ELISA, peptide titration.
As for B5, the binding result is on record as “binds”.

The target of a further assay is T3, EGFR (UniProt P00533 25-1210).
T3 construct: also called HER1
The assay can be described thus: immunoprecipitation with anti-EGFR from lysates of transfected 293 cells, anti-MUC1-CD immunoblot.
Description: Lysates were subjected to immunoprecipitation with anti-EGFR or IgG as a control.
Equal amounts of cell lysate were incubated with anti-EGFR (Santa Cruz Biotechnology, Santa Cruz, Calif.) or mouse IgG. […] Reactivity was detected with a horseradish peroxidase-conjugated second antibody and chemiluminescence.
B1: the binding result is “no binding”.

For the next assay, the target named is GST-LIM Mystique PDZ domain 1 (human). The experiment in a line: modified ELISA, GST-PDZ captured by anti-GST, biotinylated MUC1 peptide titrated, HRP-streptavidin.
Chain of GST-LIM Mystique PDZ domain 1 (human) (chain, as listed by the source limits assumed): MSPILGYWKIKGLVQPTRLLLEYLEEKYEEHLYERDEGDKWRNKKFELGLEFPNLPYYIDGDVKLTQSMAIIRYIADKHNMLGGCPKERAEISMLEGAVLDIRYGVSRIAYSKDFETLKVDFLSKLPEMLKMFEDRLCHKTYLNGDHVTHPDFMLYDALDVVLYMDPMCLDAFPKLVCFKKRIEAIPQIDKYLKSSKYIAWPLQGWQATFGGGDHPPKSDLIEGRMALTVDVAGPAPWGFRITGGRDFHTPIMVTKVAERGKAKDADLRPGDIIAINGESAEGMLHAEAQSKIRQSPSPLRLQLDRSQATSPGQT
Excerpt: Titrations to determine relative EC₅₀ values: Peptide corresponding to MUC1 was then titrated against a constant amount of the PDZ domain-containing recombinant proteins identified in the first part of this example.
B6 came in with an EC50 of 10 nM.

Another assay addresses T2, GST-RIM2 (KIAA0751) PDZ domain 1. The assay can be described thus: modified ELISA, plated GST-RIM2 PDZ domain, biotinylated peptide 0.001-10 µM, curve fit; Relative EC50.
For the molecule B7, a half-maximal effect (EC50) was put at 33 nM.

With B2, the EC50 came to 5 nM.

The molecule B8 returned an EC50 of 50 nM.

B9 registered an EC50 of 240 nM.

Turning to B10, the EC50 was < 10 nM.

In the case of B11, the 50% effective concentration (EC50) is < 10 nM.

With B12, the EC50 was found to be 880 nM.

For the molecule B13, the EC50 was ~30 nM.

B14 yielded an EC50 of 600 nM.

B3 gave an EC50 of 40 nM.

In turn, B4 had an EC50 of 20 nM.

Turning to B15, the midpoint of the response, the EC50, lay at 10 nM.

In turn, B16 yielded an EC50 of 30 nM.

Regarding B17, the half-maximal effective concentration (EC50) was < 10 nM.

B18 registered an EC50 of 45 nM.

Turning to B19, the EC50 worked out at 40 nM.

B20 yielded an EC50 of 37 nM.

As for B21, the response was half-maximal at 8 nM (EC50).

In the case of B22, it took 47 nM to reach a half-maximal effect (EC50).

As for B23, the EC50 came out at 38 nM.

B24: the concentration for a half-maximal effect (EC50) is < 10 nM.

As to B25, the EC50 was 45 nM.

B26 returned an EC50 of 7 nM.

As to B27, the EC50 was determined as 47 nM.

Consider B28, for which the response was half-maximal at 132 nM (EC50).

Turning to B29, the EC50 was 13 nM.

B30 had an EC50 of 13 nM.

As for B31, the midpoint of the response, the EC50, lay at 90 nM.

B32: the EC50 was < 10 nM.

The molecule B33 came in with an EC50 of 22 nM.

With B34, a half-maximal effect (EC50) was put at 68 nM.

In turn, B35 came in with a 50% effective concentration (EC50) of 13 nM.

On to B36, for which the EC50 was < 10 nM.

With B37, the EC50 worked out at 10 nM.

On to B38, for which the EC50 is 135 nM.

In the case of B39, the EC50 came to 78 nM.
